Consider 21 sequences from the supplement of paper PMC9170038.

This data set relates to MS2 coat protein. The experiment in a line: apparent KD of MS2 coat protein; designed switch direction (-1 OFF switch, 1 ON switch): 1; higher = weaker reporter binding. Put shortly:
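Designed RNA switches with common flanks were made on Illumina chips by stalled E. coli RNA polymerase. Titration with SNAP-549-labelled MS2 coat protein doubled from 0.7 or 1.5 nM up to 3 µM. Apparent KD is each design's median over clusters after curve-fitting normalised fluorescence.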

Where [1] appears, read: input ligand: microRNA oligo, concentration not stated.
[2] abbreviates: Eterna round: R95, input ligand: FMN 200 uM.
Setting [3] is: Eterna round: R95, input ligand: microRNA oligo, concentration not stated.
[4] abbreviates: Eterna round: R95, input ligand: none.

Take “GAGUAGUUGAAAGGAUAUAGAUUAUUGUAGGAUCUAGAAGGUUCUAACAUGAGGAUCACCCAUGUAGGACUAUUCCUGUGUAUC [Parity 88 - Jieux - Same State NG 1] (Eterna round: R96, puzzle: Same State NG 1)”: the “apparent KD of MS2 coat protein” value by setting is: (input ligand: FMN 200 uM) 9.56 nM; under setting [1], 9.27 nM; (input ligand: none) 12.6 nM.
Consider “GAGUGACAUGAGGAUCACCCAUGUAGAAUAGAACAAGGAUAUGUGGAAGGCGGAGGAGAGACAGAAGGUGUUGAGG [JR_SS1_Sub058] (puzzle: Same State 1)”, for which the “apparent KD of MS2 coat protein” value by setting is: under setting [2], 52 nM; under setting [3], 77.1 nM; under setting [4], 119 nM.
Consider “GAGUGGUAAAGAGGAUAUGCAUUGUUAUUCACUGUAGAAGGUUUUAACAUGAGGAUCACCCAUGUAGGACUAUUCCUGUGUUUU [Parity 61 - Jieux - Same State NG 1] (Eterna round: R96, puzzle: Same State NG 1)”, for which the “apparent KD of MS2 coat protein” value (input ligand: FMN 200 uM) was found to be 12.4 nM, the “apparent KD of MS2 coat protein” value under setting [1] amounted to 12.4 nM and the “apparent KD of MS2 coat protein” value (input ligand: none) was found to be 18.8 nM.
With “GAGUGGUGGAGAGGAUAUACAUUGAUAAUCACUGUAGAAGGUUCUAACAUGAGGAUCACCCAUGUAGGACUAUUCCUGAGAGUU [Parity 53 - Jieux - Same State NG 1] (Eterna round: R96, puzzle: Same State NG 1)”, the “apparent KD of MS2 coat protein” value came to 11.6 nM (input ligand: FMN 200 uM), 9.89 nM under setting [1] and 12 nM (input ligand: none).
Regarding “GAGUUACUAUCUCAGGAUAUCAUGUCAAAGACAUGAGGAUCACCCAUGUACCAGGAAACUGGUUAUGAGAAGGGAGAUAGUAACG [Mat - Same State 2 - Mod - D52] (puzzle: Same State 2)”, the “apparent KD of MS2 coat protein” value runs as follows: under setting [2], 112 nM; under setting [3], 116 nM; under setting [4], 154 nM.
For “GCAAACACAUGAGGAUCACCCAUGUGGAAAGAGCAAUUAGGCUAGGAUAUUCAUGUCGUUUGCAAGAAGAAGGAGCCAUAGUGG [Eternabot solution 20] (Eterna round: R96, puzzle: Same State NG 3)”, the “apparent KD of MS2 coat protein” value under setting [1] worked out at 205 nM.
As to “GCAGCACAUGAGGAUCACCCAUGUCUUCGGAGUCGAGGAUAUGGUCACUGUAAACAGUGGCCAGAAGGCGAGUUGC [SS1 - Son of Teenbexe v5] (puzzle: Same State 1)”, the “apparent KD of MS2 coat protein” value under setting [3] came to 24.3 nM.
Regarding “GCAGCCGGCACUGAGGAUAUUCAUAUUAAAACAUGAGGAUCACCCAUGUAGGCCAGAAGGCCUUGGGAGAAGGCAGGUCGGCUGG [Mat - Same State 2 - Mod of UCT - D63] (puzzle: Same State 2)”, the “apparent KD of MS2 coat protein” value was 20.8 nM under setting [2], 219 nM under setting [3] and 232 nM under setting [4].
For “GCAGGACGGUAAAACAUCUCACAUGAGGAUCACCCAUGUUGUGAGGAUAUGGAUCCUAAUUGGAUCCAGAAGGCACGGUCCUGC [Fiskers NG3ss - 30] (Eterna round: R96, puzzle: Same State NG 3)”, the “apparent KD of MS2 coat protein” value is, setting by setting: (input ligand: FMN 200 uM) 24.9 nM; under setting [1], 17.7 nM; (input ligand: none) 27.8 nM.
On to “GCAGUACAUGAGGAUCACCCAUGUCUCUAAAGUCGAGGAUAUGGGCAGGUUAUAUCCGAACCAGAAGGCGAACUGC [SS1 Teenbexe 11] (puzzle: Same State 1)”, for which the “apparent KD of MS2 coat protein” value reads like this: under setting [2], 68.6 nM; under setting [3], 260 nM; under setting [4], 527 nM.
With “GCAUCACAUGAGGAUCACCCAUGUCUUCGGAGUGGAGGAUAUGGUCACUGUAAACAGUGGCCAGAAGGCCGGAUGC [SS1 - Son of Teenbexe v2] (puzzle: Same State 1)”, the “apparent KD of MS2 coat protein” value under setting [3] stood at 63.3 nM.
With “GCCAACGCAUGAGGAUAUGGCACCUUAUUGGUGCCAGAAGGCGUGUGUAUUCACAUGAGGAUCACCCAUGUAUUAUAGUUGGCA [Fiskers NG1ss - 16] (Eterna round: R96, puzzle: Same State NG 1)”, the “apparent KD of MS2 coat protein” value reads like this: (input ligand: FMN 200 uM) 24.1 nM; under setting [1], 169 nM; (input ligand: none) 189 nM.
As to “GCCCAGAGUAUAUGGGUACAAGCUUUUUGACAUGAGGAUCACCCAUGUACUCGUCUUAUGUGCAGUCCGUAGACUGC [JL-shm-2.19 Brourd mod] (puzzle: Sensor for hsa-mir-208a)”, the “apparent KD of MS2 coat protein” value turned out to be 18.2 nM under setting [2], 27.3 nM under setting [3] and 17.4 nM under setting [4].
In the case of “GCCGCGUUUAACGCCUACAUGAGGAUCACCCAUGUAUGUAGGCAGGAUAUCGUUUGCUUUGCAAACGAGAAGGGCUGUAGUGGC [salish99_SSNG3_R04_006] (Eterna round: R96, puzzle: Same State NG 3)”, the “apparent KD of MS2 coat protein” value runs as follows: (input ligand: FMN 200 uM) 25.9 nM; under setting [1], 73.9 nM; (input ligand: none) 80.9 nM.
For the sequence “GCCGCGUUUCGCGCCUACAUGAGGAUCACCCAUGUUUGUAGGCAGGAUAUCGUUUGCUUUGCGGGCGAGAAGGGCUGUUGUGGC [salish99_SSNG3_R04_017] (Eterna round: R96, puzzle: Same State NG 3)”, the “apparent KD of MS2 coat protein” value is 35 nM (input ligand: FMN 200 uM), 28.9 nM under setting [1] and 38.8 nM (input ligand: none).
In the same order, the values of “GCCGCGUUUCGCGCCUACAUGAGGAUCACCCAUGUUUGUCGGCAGGAUAUCGUCCGCUCUGCGGGCGAGAAGGGCUAUUGUGGU [salish99_SSNG3_R04_027] (Eterna round: R96, puzzle: Same State NG 3)” are 28.8 nM, 17 nM and 24.5 nM.
Consider “GCGAGCGUACUUGCAACAUGAGGAUCACCCAUGUUAACUGGACAGGAUAUGGUACCGUUUCGGUACCAGAAGGGUUCCUUCAUG [JL SSNG3 3.60] (Eterna round: R96, puzzle: Same State NG 3)”, for which the “apparent KD of MS2 coat protein” value runs as follows: (input ligand: FMN 200 uM) 167 nM; under setting [1], 166 nM; (input ligand: none) 268 nM.
Regarding “GCGAGCGUACUUGCUACAUGAGGAUCACCCAUGUUUACUGGACAGGAUAUGGUACCGUUUCGGUACCAGAAGGGUUCAUCAUGU [JL SSNG3 3.69] (Eterna round: R96, puzzle: Same State NG 3)”, the “apparent KD of MS2 coat protein” value worked out at 278 nM (input ligand: FMN 200 uM), 248 nM under setting [1] and 597 nM (input ligand: none).
Take “GCGGAACAUGAGGAUCACCCAUGUGGAGGGUGUAAAGGAUAUUAUAGAGAGAAGGUAGGGUAAGAAGGUUGCUGGG [JR_SS1_Sub090] (Eterna round: R96, puzzle: Same State 1)”: the “apparent KD of MS2 coat protein” value was 899 nM (input ligand: FMN 200 uM), 582 nM under setting [1] and 994 nM (input ligand: none).
As to “GCGGAACAUGAGGAUCACCCAUGUGGAGGGUGUAAAGGAUAUUAUAGAGAGAAGGUAGGGUAAGAAGGUUGCUGGG [JR_SS1_Sub090] (puzzle: Same State 1)”, the “apparent KD of MS2 coat protein” value runs as follows: under setting [2], 624 nM; under setting [3], 320 nM; under setting [4], 592 nM.
In the case of “GCGGAGACGUCAGGAUAUCCAUGGAAGACACAUGAGGAUCACCCAUGUGGGAGGGAAACCAGGAGGGAGAAGGGACGGAAACGC [ssng2 v2 d] (Eterna round: R96, puzzle: Same State NG 2)”, the “apparent KD of MS2 coat protein” value (input ligand: FMN 200 uM) came out at 10 nM, the “apparent KD of MS2 coat protein” value under setting [1] worked out at 9.63 nM and the “apparent KD of MS2 coat protein” value (input ligand: none) amounted to 14.1 nM.
